Experimental data: article PMC11053110 (Nature Communications, 2024)

Target: T1, GST-tagged IRF3 (human, UniProt Q14653 1-427)
T1 construct: also called GST-IRF3
T1 sequence (looked up): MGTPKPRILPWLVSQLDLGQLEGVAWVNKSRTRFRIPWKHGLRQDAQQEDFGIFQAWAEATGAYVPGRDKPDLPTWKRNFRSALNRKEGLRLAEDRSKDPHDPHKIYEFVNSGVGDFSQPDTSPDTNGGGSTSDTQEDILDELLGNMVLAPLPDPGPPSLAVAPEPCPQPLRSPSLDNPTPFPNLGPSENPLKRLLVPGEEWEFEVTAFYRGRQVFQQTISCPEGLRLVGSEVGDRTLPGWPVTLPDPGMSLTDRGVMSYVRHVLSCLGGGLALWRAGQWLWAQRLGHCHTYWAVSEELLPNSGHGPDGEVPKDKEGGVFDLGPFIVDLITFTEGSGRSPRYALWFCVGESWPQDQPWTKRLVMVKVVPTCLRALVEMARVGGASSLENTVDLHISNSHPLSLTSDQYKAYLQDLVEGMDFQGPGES
Test: pull-down
Conditions: both partners purified

B1: His-tagged EGLN1 (enzyme, human, UniProt Q9GZT9 1-426, looked up)
chain: MANDSGGPGGPSPSERDRQYCELCGKMENLLRCSRCRSSFYCCKEHQRQDWKKHKLVCQGSEGALGHGVGPHQHSGPAPPAAVPPPRAGAREPRKAAARRDNASGDAAKGKVKAKPPADPAAAASPCRAAAGGQGSAVAAEAEPGKEEPPARSSLFQEKANLYPPSNTPGDALSPGGGLRPNGQTKPLPALKLALEYIVPCMNKHGICVVDDFLGKETGQQIGDEVRALHDTGKFTDGQLVSQKSDSSKDIRGDKITWIEGKEPGCETIGLLMSSMDDLIRHCNGKLGSYKINGRTKAMVACYPGNGTGYVRHVDNPNGDGRCVTCIYYLNKDWDAKVSGGILRIFPEGKAQFADIEPKFDRLLFFWSDRRNPHEVQPAYATRYAITVWYFDADERARAKVKYLTGEKGVRVELNKPSDSVGKDVF
notes: also called His-EGLN1
Does B1 bind?
Result: binds
